From patent EP1992633A1 (HUMAN GENOME SCIENCES, INC., dated 2008)

Columns and labels:
Assay in all cases: method not described (cites Mazzei et al. 1995)
Fas = biological target: T1, Fas (UniProt P25445 26-173, limits assumed)
T1 sequence (looked up): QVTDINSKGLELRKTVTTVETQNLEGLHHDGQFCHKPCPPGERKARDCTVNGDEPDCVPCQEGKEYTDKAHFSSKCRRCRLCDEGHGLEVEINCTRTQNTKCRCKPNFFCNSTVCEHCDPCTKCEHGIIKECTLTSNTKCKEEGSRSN

DR3 = biological target: T2, DR3 (UniProt Q93038 25-199, limits assumed)
T2 sequence (looked up): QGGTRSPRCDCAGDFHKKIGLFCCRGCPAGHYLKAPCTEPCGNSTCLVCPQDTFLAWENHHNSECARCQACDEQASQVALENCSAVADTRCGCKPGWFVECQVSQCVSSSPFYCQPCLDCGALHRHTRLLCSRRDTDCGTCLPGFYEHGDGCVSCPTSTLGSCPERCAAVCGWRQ

TNFR2 = biological target: T3, TNFR2 (UniProt P20333 23-257, limits assumed)
T3 sequence (looked up): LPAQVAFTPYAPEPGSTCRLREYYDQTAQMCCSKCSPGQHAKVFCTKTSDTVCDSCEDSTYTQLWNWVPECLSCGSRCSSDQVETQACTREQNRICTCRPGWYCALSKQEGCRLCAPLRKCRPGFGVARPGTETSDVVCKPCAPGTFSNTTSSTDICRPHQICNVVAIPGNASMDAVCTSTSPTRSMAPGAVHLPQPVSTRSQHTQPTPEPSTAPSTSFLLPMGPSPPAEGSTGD

DR4 = biological target: T4, DR4 (UniProt O00220 24-239, limits assumed)
T4 sequence (looked up): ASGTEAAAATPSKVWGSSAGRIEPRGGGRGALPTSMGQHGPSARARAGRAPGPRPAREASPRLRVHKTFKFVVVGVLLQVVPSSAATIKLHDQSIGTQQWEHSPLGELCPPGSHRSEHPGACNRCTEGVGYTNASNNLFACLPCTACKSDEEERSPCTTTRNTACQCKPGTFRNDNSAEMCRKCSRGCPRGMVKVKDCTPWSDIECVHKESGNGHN

TNFR1 = biological target: T5, TNFR1 (UniProt P19438 30-211, limits assumed)
T5 sequence (looked up): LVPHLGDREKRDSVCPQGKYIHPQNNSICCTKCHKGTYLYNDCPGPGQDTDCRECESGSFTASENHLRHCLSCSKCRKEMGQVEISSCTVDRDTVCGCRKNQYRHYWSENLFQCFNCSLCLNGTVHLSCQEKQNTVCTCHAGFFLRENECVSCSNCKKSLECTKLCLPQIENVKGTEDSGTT

Measured: binding result

B1: truncated version of VEGI-alpha corresponding to the putative extracellular domain consisting of residues 38-174, expressed in E. coli (ligand)
chain: ALHWEHELGLAFTKNRMNYTNKFLLIPESGDYFIYSQVTFRGMTSECSEIRQAGRPNKPDSITVVITKVTDSYPEPTQLLMGTKSVCEVGSNWFQPIYLGAMFSLQEGDKLMVNVSDISLVDYTKEDKTFFGAFLL
notes: also called VEGI-alpha deletion mutant; the mutant
no binding: all assays above
